Series [1] deals with Flag-Fep1 (1–208) WT (Pichia pastoris). The series is described as follows: SEC; analytical gel-filtration on Superdex-75 (10/300) in 25 mM MOPS pH 7, 150 mM NaCl; calibrated with conalbumin, ovalbumin, carbonic anhydrase and RNase A. In general terms: SEC sorts molecules by how far they enter the pores of the column.
Series [2] has the same target. Kind of series: SAXS; solution SAXS at ESRF beamline BM29, 293 K, three dilutions of each sample; as-purified and after reconstitution of the [2Fe-2S] cluster; molecular weights from ab initio calculation with ATSAS.
Series [3] has as its target T1, MBP-Fep1 (41-192) WT (Pichia pastoris (GS115), UniProt A4VAR6 41-192).
T1 sequence: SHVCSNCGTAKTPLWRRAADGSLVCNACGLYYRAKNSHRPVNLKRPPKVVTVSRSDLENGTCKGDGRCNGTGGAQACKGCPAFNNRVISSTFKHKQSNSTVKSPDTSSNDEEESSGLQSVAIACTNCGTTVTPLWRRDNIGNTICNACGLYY
The series is described as follows: EMSA; 5 uM ZnSO4, 5 uM FeCl3; 12.5 mM Hepes pH 7.9, 75 mM NaCl, 4 mM MgCl2, 1 mM EDTA, 10% glycerol, 4 mM Tris-HCl pH 7.9, 0.6 mM DTT, 1 ug poly(dI-dC)2, 5 uM ZnSO4, 5 uM FeCl3; 100-250 ng protein, 1 ng probe, 20 min at 25 C; 6% native gel at 4 C. Particulars: protein: recombinant; tags: MBP fusion; label: 32P end-label (alpha-32P); 5' overhangs: 4 nt on S3, 3 nt on S4 as printed; 32 bp duplex. Background: A gel shift assay detects complexes by their altered migration in electrophoresis.

What is called stoichiometry N is the number of molecules, sites or subunits per partner or assembly.

With “Flag-Fep1 (1–208) WT (domain or fragment)”, the stoichiometry N in series [1] and in series [2] was 2 throughout.

B1: fetgata2/fetgata1 (FET3 promoter GATA probe) (dsDNA)
DNA 1: GGCGATTGAACTGATAATTTTACTAAATAAGTGGAA
DNA 2: GGATTCCACTTATTTAGTAAAATTATCAGTTCAAT
As for B1, in series [3], the binding result was “binds”.

The values are drawn from publication PMC4992955, “Pichia pastoris Fep1 is a [2Fe-2S] protein with a Zn finger that displays an unusual oxygen-dependent role in cluster binding”.
